Changes are numbered by the printed parent chain. In names and notes the source's numbering stands.
B1: recombinant human αA-crystallin T148D (phosphomimetic) (natural protein, UniProt P02489 1-173, looked up)
chain: MDVTIQHPWFKRTLGPFYPSRLFDQFFGEGLFEYDLLPFLSSTISPYYRQSLFRTVLDSGISEVRSDRDKFVIFLDVKHFSPEDLTVKVQDDFVEIHGKHNERQDDHGYISREFHRRYRLPSNVDQSALSCSLSADGMLTFCGPKIQDGLDATHAERAIPVSREEKPTSAPSS
B2: recombinant human αA-crystallin T148A (nonphosphorylatable) (natural protein, UniProt P02489 1-173, looked up)
chain: B1 chain with D148A

Molecular target: the molecule itself
Experiment: native gel or EMSA; NativePAGE 3-12% Bis-Tris gel, 7.5 ug of recombinant protein per lane; oligomer profile from <480 to 1236 kDa, median size read against markers

Row | Protein | binding result
1 | B1 | binds
2 | B2 | binds

— paper PMC8906792 (eNeuro, 2022)
